Experimental data from IntAct's records for PubMed 23478064.

B1: Eukaryotic translation initiation factor 4 gamma 2 (Homo sapiens), P78344-1 (parent)
chain: MESAIAEGGASRFSASSGGGGSRGAPQHYPKTAGNSEFLGKTPGQNAQKWIPARSTRRDDNSAANNSANEKERHDAIFRKVRGILNKLTPEKFDKLCLELLNVGVESKLILKGVILLIVDKALEEPKYSSLYAQLCLRLAEDAPNFDGPAAEGQPGQKQSTTFRRLLISKLQDEFENRTRNVDVYDKRENPLLPEEEEQRAIAKIKMLGNIKFIGELGKLDLIHESILHKCIKTLLEKKKRVQLKDMGEDLECLCQIMRTVGPRLDHERAKSLMDQYFARMCSLMLSKELPARIRFLLQDTVELREHHWVPRKAFLDNGPKTINQIRQDAVKDLGVFIPAPMAQGMRSDFFLEGPFMPPRMKMDRDPLGGLADMFGQMPGSGIGTGPGVIQDRFSPTMGRHRSNQLFNGHGGHIMPPTQSQFGEMGGKFMKSQGLSQLYHNQSQGLLSQLQGQSKDMPPRFSKKGQLNADEISLRPAQSFLMNKNQVPKLQPQITMIPPSAQPPRTQTPPLGQTPQLGLKTNPPLIQEKPAKTSKKPPPSKEELLKLTETVVTEYLNSGNANEAVNGVREMRAPKHFLPEMLSKVIILSLDRSDEDKEKASSLISLLKQEGIATSDNFMQAFLNVLDQCPKLEVDIPLVKSYLAQFAARAIISELVSISELAQPLESGTHFPLFLLCLQQLAKLQDREWLTELFQQSKVNMQKMLPEIDQNKDRMLEILEGKGLSFLFPLLKLEKELLKQIKLDPSPQTIYKWIKDNISPKLHVDKGFVNILMTSFLQYISSEVNPPSDETDSSSAPSKEQLEQEKQLLLSFKPVMQKFLHDHVDLQVSALYALQVHCYNSNFPKGMLLRFFVHFYDMEIIEEEAFLAWKEDITQEFPGKGKALFQVNQWLTWLETAEEEESEEEAD

Variants of: B1
Details: with if4a1_human EIF4A1, P60842
Sequence of if4a1_human EIF4A1, P60842 (P60842 whole entry): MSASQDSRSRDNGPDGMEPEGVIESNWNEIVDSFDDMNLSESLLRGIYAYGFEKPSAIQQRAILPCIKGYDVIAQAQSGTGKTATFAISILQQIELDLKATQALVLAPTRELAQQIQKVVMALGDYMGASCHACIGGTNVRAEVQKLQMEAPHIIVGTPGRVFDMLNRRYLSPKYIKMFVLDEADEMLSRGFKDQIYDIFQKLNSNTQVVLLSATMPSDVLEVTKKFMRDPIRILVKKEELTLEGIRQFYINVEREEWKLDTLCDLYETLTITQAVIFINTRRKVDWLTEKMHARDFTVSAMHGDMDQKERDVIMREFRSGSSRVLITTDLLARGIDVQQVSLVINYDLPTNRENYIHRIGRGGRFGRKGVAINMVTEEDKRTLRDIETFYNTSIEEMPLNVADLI

Variant | effect of a mutation on the interaction
F296A | disrupting interaction strength
N86A | disrupting interaction strength
E125K | disrupting interaction strength
